The values that follow come from patent publication US20040053872, “New sequences” (published 2004).

The target in data set [1] is T1, HIV-1 RT reference (HIV-1 subtype B (clone BH10), UniProt P03366;P03366 P03366:600-1159,P03366:600-1039). The data set is described as follows: competition; BIC50, RT binding to template/primer; 33 C.
Data set [2] has as its target T1, HIV-1 RT reference. As to the kind of experiment: inhibition; RNA-dependent DNA polymerisation, preincubated 30 min, 33 C. The note with it: two stem-loops (D and anticodon).
Data set [3] addresses T1, HIV-1 RT reference. As to the kind of experiment: inhibition; second strand DNA synthesis, 33 C.
The target in data set [4] is T1, HIV-1 RT reference. As to the kind of experiment: competition; BIC50, RT binding to primer; 33 C.
Data set [5] has as its target T1, HIV-1 RT reference. The data set is described as follows: inhibition; RNA-dependent DNA polymerisation, 33 C. The conditions noted are these: hairpin.
Setting [6] is: two stem-loops (D and anticodon).

As a reminder, the IC50 is the midpoint of a concentration-inhibition curve. A low value points to greater potency. Regarding GCUCAGUCGGUAGAGCAUCAGACUUUUAAUCUGAG (ssRNA) [compound 199], the IC50 with HIV-1 RT reference [1] (setting [6]) was 7 nM; with HIV-1 RT reference [2] it was 6.6 nM; in the data set with HIV-1 RT reference [3] (setting [6]), 40 nM; with HIV-1 RT reference [4] (setting [6]), 2 nM.

For CAGACUUUUAAUCUG (ssRNA, PS all linkages) [compound 198 (15-mer anticodon stem-loop)], the IC50 is 900 nM with HIV-1 RT reference [1] (hairpin), 550 nM in the data set with HIV-1 RT reference [3] (hairpin), 100 nM with HIV-1 RT reference [4] (hairpin) and 470 nM with HIV-1 RT reference [5].
